From article PMC6175992, “Telomeric Repeat-Binding Factor Homologs in Entamoeba histolytica: New Clues for Telomeric Research”

Target: T1, rEhTRF-like I (Entamoeba histolytica, UniProt C4M1I9 1-404)
T1 sequence: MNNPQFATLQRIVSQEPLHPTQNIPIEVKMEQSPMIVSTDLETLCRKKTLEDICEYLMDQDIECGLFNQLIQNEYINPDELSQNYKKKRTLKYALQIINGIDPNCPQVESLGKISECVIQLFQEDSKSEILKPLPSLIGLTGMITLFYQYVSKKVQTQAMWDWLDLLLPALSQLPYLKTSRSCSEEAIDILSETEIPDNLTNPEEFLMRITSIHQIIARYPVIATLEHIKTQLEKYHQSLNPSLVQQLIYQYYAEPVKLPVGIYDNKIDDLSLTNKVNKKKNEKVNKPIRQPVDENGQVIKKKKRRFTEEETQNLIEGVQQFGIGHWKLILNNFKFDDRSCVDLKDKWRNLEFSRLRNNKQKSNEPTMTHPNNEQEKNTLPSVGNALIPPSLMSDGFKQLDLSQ
Assay: EMSA; competed by unlabeled HsTEL and EhTEL; 12 mM HEPES pH 7.9, 60 mM KCl, 5 mM MgCl2, 1 mM EDTA, 4 mM Tris-HCl, 5 mM DTT, 10% glycerol, 4 mM spermidine, 4 mM MgCl (so in the source), 50 ng poly dI-dC, protease inhibitors; 20 min at 4 C; 106.86 uM rEhTRF-like I or 10 ug nuclear extract, 1 ng probe
Details: protein: recombinant; tags: His tag (pCold I); label: 32P; 5' overhangs on both strands

B1: HsTEL (dsDNA)
DNA 1: GCTCTAGGGTTAGGGTTAGGGTTAGGGTTA
DNA 2: CATCTACCCTAACCCTAACCCTAACCCTAA
- binding result: binds

B2: EhTEL (dsDNA)
DNA 1: GCTCTATTAGTATTTTAGTATTTTAGTATTTTAGTATT
DNA 2: CATCTAGAGCAATACTAAAATACTAAAATACTAAAATACTAA
- binding result: binds
